Experiments:
[1] = target: 9His-rsLAAO1 (L-amino acid oxidase from Rhizoctonia solani with nine histidine residues as affinity tag) (Rhizoctonia solani); test: SEC; 9His-rsLAAO1 activated with 1.5 mM SDS, added to the protein solution before chromatography; Superdex 200 Increase 10/300 GL, 50 mM NaH2PO4 pH 8.2, 300 mM NaCl
[2] = target: 9His-rsLAAO1 (L-amino acid oxidase from Rhizoctonia solani with nine histidine residues as affinity tag) (Rhizoctonia solani); test: SEC; native 9His-rsLAAO1 on calibrated Superdex 200 Increase 10/300 GL, 50 mM NaH2PO4 pH 8.2, 300 mM NaCl, 0.3 mL/min; without SDS

stoichiometry N [1]: 2
stoichiometry N [2]: 2
Substance: 9His-rsLAAO1 (L-amino acid oxidase from Rhizoctonia solani with nine histidine residues as affinity tag) (enzyme)
